The target of assay [1] is T1, human FcγRIIA on primary human cells (neutrophils; sorted CD14+ monocytes), allotype not stated (human, UniProt P12318 34-317).
T1 construct: whole, on cells; also called human FcγRIIA at the neutrophil surface; FcγRIIA-expressing neutrophils
T1 sequence (looked up): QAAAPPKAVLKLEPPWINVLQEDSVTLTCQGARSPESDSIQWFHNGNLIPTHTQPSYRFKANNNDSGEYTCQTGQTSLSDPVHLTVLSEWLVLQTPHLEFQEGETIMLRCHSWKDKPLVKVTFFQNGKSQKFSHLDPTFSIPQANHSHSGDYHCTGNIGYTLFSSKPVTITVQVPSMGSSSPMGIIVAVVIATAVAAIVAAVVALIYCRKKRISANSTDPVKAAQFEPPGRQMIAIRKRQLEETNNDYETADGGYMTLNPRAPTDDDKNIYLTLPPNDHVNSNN
Put plainly: flow cytometry, fluorescently labelled antibody on human neutrophils, without IVIG. The protocol:
(§1) Human neutrophils were re-suspended in blocking buffer [phosphate-buffered saline (PBS) supplemented with 10% fetal bovine serum] and transferred to round-bottom 96-well culture plates (0.5×10^6 cells/well). […] After incubation, cells were washed with cold PBS and the mean fluorescence intensity (MFI) of cell-bound antibodies was assessed by flow cytometry using an LSRII (BD; Franklin Lakes, NJ). The EC₅₀ for binding was calculated using a non-linear fit equation in GraphPad Prism 6 software.
Background: Flow cytometry measures light scatter and fluorescence of single cells or particles in a stream.

For assay [2], the target named is T2, recombinant FcγRIIB (ELISA coat, generated at MedImmune) (UniProt P31994 43-217, limits assumed).
T2 construct: also called CD32B
T2 sequence (looked up): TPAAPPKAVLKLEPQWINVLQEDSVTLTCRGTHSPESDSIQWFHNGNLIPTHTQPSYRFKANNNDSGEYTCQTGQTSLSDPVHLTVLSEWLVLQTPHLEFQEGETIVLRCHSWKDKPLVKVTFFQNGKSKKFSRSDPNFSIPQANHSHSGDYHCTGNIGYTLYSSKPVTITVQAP
Put plainly: ELISA on plate-coated FcγRIIB (2 µg/ml), detection with goat anti-human Fc-HRP. How it is done:
(§2) Plates were washed five times with 200 μl of wash buffer (PBS containing 0.1% Tween 20), blocked with blocking buffer containing 5% milk in PBS for 1 hour at room temperature, and washed five additional times with wash buffer. Three-fold serial dilutions of the test antibody or control antibody (R347-Tm) were added to wells in duplicate. Plates were incubated for 2 hours at room temperature, and washed five times with wash buffer. Binding of the antibodies to the FcγRs was detected by adding 50 μl of goat anti-human Fc-HRP (Jackson ImmunoResearch Laboratories, PA) to the wells and incubating for 1 hour at room temperature, washing 10 times, and adding 50 μl TMB substrate (Pierce Biotechnology, MA). The color reaction was stopped with 50 μl 0.2M […] and the absorbance was measured using a spectrophotometer (Molecular Devices, CA) at […].
On the technique in general: In an ELISA, binding on a coated surface is turned into a signal by an enzyme label.

Assay [3] concerns the target T3, human FcγRIIA 131R on blood cells of 131R/R donors (human, UniProt P12318 34-317).
T3 sequence: T1 sequence (looked up) with H134R
Put plainly: cell-based or functional assay.

In assay [4] the target is T4, recombinant human FcγRIIIA-158V allotype (ELISA coat, generated at MedImmune) (human, UniProt P08637 17-208, limits assumed).
T4 construct: also called FcγRIII-158V allotype; CD16A 158V
T4 sequence (P08637 17-208 F176V limits assumed): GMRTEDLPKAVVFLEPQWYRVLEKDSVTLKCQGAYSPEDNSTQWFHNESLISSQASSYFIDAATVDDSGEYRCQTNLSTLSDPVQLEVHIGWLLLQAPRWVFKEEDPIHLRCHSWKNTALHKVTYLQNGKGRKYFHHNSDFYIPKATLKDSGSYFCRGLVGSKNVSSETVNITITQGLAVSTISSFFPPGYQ
Put plainly: ELISA on plate-coated FcγRIIIA-158V (2 µg/ml), detection with goat anti-human Fc-HRP. The protocol:
as §2

Assay [5] has as its target T1, human FcγRIIA on primary human cells …. Put plainly: flow cytometry, fluorescently labelled antibody on human neutrophils, 30 min at 4 °C, in the presence of 10 mg/mL IVIG as competitor. How it is done: as §1
The target of assay [6] is T5, recombinant FcγRIIA-131H/H allotype (ELISA coat, generated at MedImmune) (human, UniProt P12318 34-217, limits assumed).
T5 construct: also called human FcγRIIA; CD32A
T5 sequence (looked up): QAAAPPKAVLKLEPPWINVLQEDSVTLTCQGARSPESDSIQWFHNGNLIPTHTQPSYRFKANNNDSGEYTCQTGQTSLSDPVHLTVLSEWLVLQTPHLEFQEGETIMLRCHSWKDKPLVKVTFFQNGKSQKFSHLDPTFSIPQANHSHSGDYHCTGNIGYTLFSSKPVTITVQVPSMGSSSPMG
Put plainly: ELISA on plate-coated FcγRIIA-131H/H (2 µg/ml), detection with goat anti-human Fc-HRP. The protocol:
as §2

Assay [7] concerns the target T1, human FcγRIIA on primary human cells …. Put plainly: flow cytometry, fluorescently labelled antibody on human neutrophils, in the presence of 10 mg/mL IVIG as competitor. How it is done:
as §1

Assay [8] deals with T6, cynomolgus CD32A version 3, 6xHis tagged (cynomolgus monkey).
T6 construct: also called Cyno CD32A; cyno CD32A (version 3)
T6 chain: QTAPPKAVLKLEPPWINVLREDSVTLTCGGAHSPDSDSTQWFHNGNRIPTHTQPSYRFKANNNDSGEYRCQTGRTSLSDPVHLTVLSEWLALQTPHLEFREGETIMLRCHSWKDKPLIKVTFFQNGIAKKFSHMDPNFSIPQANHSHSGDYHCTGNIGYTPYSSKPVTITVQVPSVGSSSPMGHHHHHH
Put plainly: Biacore; IgG1-TM captured on a Protein G chip, CD32A as analyte, 1:1 Langmuir fit, average of two experiments. (Surface plasmon resonance follows binding to a sensor surface in real time, without labels.)

Numbering of substitutions follows the chain as printed.

The EC50 is the concentration needed to bring the measured effect to its halfway point. One may read the EC50 (read off the curve) as the concentration that produces a half-maximal response. The Kd is the concentration at which binding is half-saturated. One may read the koff as a measure of how fast the partners let go of each other. Low readings indicate a long-lived complex, high ones a short-lived complex. As usually defined, the kon is a measure of how fast the partners come together. A lower kon goes with slower complex formation.

B1: 32LO0352 (MEDI9600) (antibody, human IgG1, V domains shown)
VH: QVQLVQSGAEVKKPGASVKVSCKASGYTFTNYGMNWVRQAPGQRLEWMGWLNTYTGESWYPDDFKGRVTITRDTSASTAYMELSSLRSEDTAVYYCARGDYGYDDPLDYWGQGTLVTVSS
VL: DIVMTQSPLSLPVTPGEPASISCRSSKSLLHTNQNTYLHWFLQKPGQSPQLLIYRMSVLASGVPDRFSGSGSGTDFTLKISRVEAEDVGVYYCMQHLEYPLTFGQGTKLEIK
notes: Fluorescently labelled in the neutrophil flow cytometry assay and Alexa 647 labelled for confocal microscopy; also called clone 32LO0352; CD32LO0352
Turning to B1, the EC50 in assay [1] is 0.03 nM; in assay [5] it was 3.35 nM; in assay [7], 3.34 nM. The binding result in assay [2] and in assay [4] was “no binding (tested: about 15000 ng/ml)” throughout. Also, in assay [3], the “IC50 of the loss of surface FcγRIIA (M.F.I of IV.3-Alexa 647) on monocytes, whole blood, 2 h at 37 °C” value was 0.0593 nM. For the same molecule, the “EC50 (read off the curve)” value in assay [6] was roughly 5 ng/mL. Also, the affinity in assay [8], expressed as Kd, was 31.3 nM. Moreover, in assay [8], the dissociation rate constant (koff) was determined as 0.0904 s⁻¹. Further, in assay [8], the kon was found to be 2.88e+06 M⁻¹ s⁻¹.

These data come from patent publication US20260125478A1 (VIELA BIO, published 2026).
